From patent US8741844B2, “Use of mutated antithrombins for treating or preventing coagulation disorders” (Universite Paris-Sud XI, priority 2007, dated 2014)
Where a chain is given by its changes, count along the chain named. Numbers in names are those of the source.

B1: AT-N135Q-ΔR393-S394: human antithrombin with deletion of positions 393 and 394 and substitution at 135 by Glutamine (protein, listed as Homo sapiens)
chain: HGSPVDICTAKPRDIPMNPMCIYRSPEKKATEDEGSEQKIPEATNRRVWELSKANSRFATTFYQHLADSKNDNDNIFLSPLSISTAFAMTKLGACNDTLQQLMEVFKFDTISEKTSDQIHFFFAKLNCRLYRKAQKSSKLVSANRLFGDKSLTFNETYQDISELVYGAKLQPLDFKENAEQSRAAINKWVSNKTEGRITDVIPSEAINELTVLVLVNTIYFKGLWKSKFSPENTRKELFYKADGESCSASMMYQEGKFRYRRVAEGTQVLELPFKGDDITMVLILPKPEKSLAKVEKELTPEVLQEWLDELEEMMLVVHMPRFRIEDGFSLKEQLQDMGLVDLFSPEKSKLPGIVAEGRDDLYVSDAFHKAFLEVNEEGSEAAASTAVVIAGLNPNRVTFKANRPFLVFIREVPLNTIIFMGRVANPCVK
B2: AT-N135Q-ΔR393: human antithrombin with deletion of position 393 and substitution at 135 by Glutamine (protein, listed as Homo sapiens)
chain: HGSPVDICTAKPRDIPMNPMCIYRSPEKKATEDEGSEQKIPEATNRRVWELSKANSRFATTFYQHLADSKNDNDNIFLSPLSISTAFAMTKLGACNDTLQQLMEVFKFDTISEKTSDQIHFFFAKLNCRLYRKAQKSSKLVSANRLFGDKSLTFNETYQDISELVYGAKLQPLDFKENAEQSRAAINKWVSNKTEGRITDVIPSEAINELTVLVLVNTIYFKGLWKSKFSPENTRKELFYKADGESCSASMMYQEGKFRYRRVAEGTQVLELPFKGDDITMVLILPKPEKSLAKVEKELTPEVLQEWLDELEEMMLVVHMPRFRIEDGFSLKEQLQDMGLVDLFSPEKSKLPGIVAEGRDDLYVSDAFHKAFLEVNEEGSEAAASTAVVIAGSLNPNRVTFKANRPFLVFIREVPLNTIIFMGRVANPCVK
B3: AT-N135Q-ΔS394: human antithrombin with deletion of position 394 and substitution at 135 by Glutamine (protein, listed as Homo sapiens)
chain: B2 chain with S393R

target: T1, factor Xa (Homo sapiens, UniProt P00742); assay: Kinetic assay of factor Xa inhibition by antithrombins in a purified system (chromogenic substrate, continuous or discontinuous); type: biochemical; details: with or without pentasaccharide; compared with plasma / wild type antithrombin
T1 construct: purchased Kordia
Experimental: Briefly, factor Xa is incubated with an excess of tested antithrombins (corresponding to plasma antithrombin, or wild type antithrombin or mutated antithrombins and varying in each assay realized) in the presence or absence of pentasaccharide (Fondaparinux sodique, Arixtra®, GlaxoSmithKline) and the factor Xa residual activity is measured as a function of time. The pentasaccharide is added in excess in the reaction media so that every tested antithrombin is bound to the pentasaccharide. In the absence of pentasaccharide, polybrene is added in order to neutralize any sulfated glycosaminoglycan that may be present in the reaction media. The residual factor Xa activity is measured as the increase in absorbance at 405 nm resulting from cleavage of the chromogenic substrate (S2765 or S2222, Chromogenix) using a microplate reader (Dynatech MR 5000). The analysis of the data is performed using the GraphPad Prism version 3 software. Absorbance recording is continuous or discontinuous according to the expected inhibition rate constant (kon).
The inhibition rate constant (kon) is the second order rate constant given in M^−1·s^−1 which define the velocity of stable complex formation between protease and antithrombin (higher is the kon value, faster will the complex be established).
When the expected kon is lower than 10^4 M^−1·s^−1 the discontinuous method is used. Factor Xa (0.2 to 1 μM, or 0.1 to 1 μM) is incubated with tested antithrombins (0.2 to 10 μM, or 1 to 10 μM) in the presence of pentasaccharide (10 to 100 μM) or polybrene (100 μg/ml) in a final volume of 10 μl for 10 seconds to 5 hours, or 10 seconds to 24 hours. At the end of this incubation period, 190 μl of kinetic buffer containing 200 μM substrate is added and absorbance at 405 nm is recorded.
The kinetic rate constant (k) is estimated by fitting the substrate hydrolysis initial rate curve to equation (1) using non-linear regression with v0 and v∞ being the substrate hydrolysis rate at time to or too respectively. […] (1)
The inhibition rate constant (kon) is calculated from the rate constant (k) using equation (2) where AT is the tested antithrombin concentration. k=AT·kon (2)
When the expected kon is higher than 10^4 M^−1·s^−1′ the continuous method is used. The tested antithrombin (0.01 to 1 μM, or 0.1 to 1 μM) is incubated with the substrate (200 μM) in the presence of pentasaccharide or polybrene in a final volume of 100 μL, or 190 μl, and the reaction is started by addition of 100 μL, or 10 μL, of factor Xa (2 nM or 10 nM). The rate constant (k) is obtained by fitting the substrate hydrolysis curve to equation (3) or (3′) using non-linear regression analysis where A0 is the absorbance at t0, and vi and vs are respectively the initial and final rates of substrate hydrolysis in the absence of tested antithrombin. A405=A0+vi·(1−exp(−k·t))/k. (3) Equation (3′) is also used, particularly in presence of plasma. A405=A0+vs*t+(vi−vs)*(1−exp(−k·t))/k. (3′)
The inhibition rate constant (kon) is calculated from the kinetic constant (k) using equation (4) that takes into account the competitive effect of the substrate, with S being the initial substrate concentration, Km, the Michaelis constant for factor Xa-substrate interaction, AT the tested antithrombin concentration. k=(kon/(1+S/Km))·[AT] (4)
Mutated antithrombins and wild type AT inhibitory activity are measured in the same conditions and compared with plasma AT inhibitory activity.

T1 sequence (P00742 235-488 limits assumed): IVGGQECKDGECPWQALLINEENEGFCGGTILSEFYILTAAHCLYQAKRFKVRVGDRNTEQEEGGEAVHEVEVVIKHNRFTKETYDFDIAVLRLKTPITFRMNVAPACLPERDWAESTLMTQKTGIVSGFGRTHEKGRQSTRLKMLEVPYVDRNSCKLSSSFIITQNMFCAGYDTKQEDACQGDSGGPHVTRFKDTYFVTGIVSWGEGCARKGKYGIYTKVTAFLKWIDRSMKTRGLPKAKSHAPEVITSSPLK
T1 sequence (P00742 41-179 partner limits assumed): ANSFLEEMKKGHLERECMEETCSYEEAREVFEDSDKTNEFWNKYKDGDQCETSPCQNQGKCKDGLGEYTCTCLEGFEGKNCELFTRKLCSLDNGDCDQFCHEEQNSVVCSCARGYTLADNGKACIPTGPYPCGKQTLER

| factor Xa inhibitory activity | Molecule |
| --- | --- |
| negligible | B1 |
| negligible | B2 |
| negligible | B3 |

system: not listed separately; assay: Heparin affinity column elution with NaCl gradient; type: binding; details: not given
Experimental: Conditioned media are thawed, pooled, salt concentration adjusted to 0.4 M NaCl and then applied on an heparin immobilized column (Hitrap Heparin 5 ml or Heparin-sepharose CL6B 50 ml, GE Biological) equilibrated with 10 mM Tris, or with 20 mM phosphate buffer, 0.4 M NaCl and 0.1 mM EDTA, pH 7.4. The bound proteins are eluted in the same buffer with a gradient from 0.4 M to 2 M NaCl. The fractions eluted from 0.8 M NaCl and more contained only wild type antithrombin or mutated antithrombins with high heparin affinity. […] The collected fractions are pooled and the salt concentration is decreased either by over night dialysis against 10 mM Tris, or 20 mM phosphate, and 0.1 M NaCl, pH 7.4 at 4° C. or applied on an HiPrep 26/10 desalting column equilibrated with 10 mM Tris, or 20 mM phosphate, and 0.1 M NaCl, pH 7.4. The antithrombin is then concentrated by ion exchange chromatography using a “Resource Q” 1 ml column (GE, Biological) equilibrated with 10 mM Tris, or 20 mM phosphate, and 0.1 M NaCl, pH 7.4 and eluted in the same buffer with a NaCl gradient from […] to 0.5 M or 20 mM to 0.5 M. The antithrombin concentration in each elution fraction is estimated by absorbance at 280 nm with an absorption coefficient ε=0.65 g^−1·l·cm^−1 and the integrity of purified wild type antithrombin or mutated antithrombins is tested by western blotting using the same couple of antibodies as described before, and electrophoresis on 10% acrylamide/bisacrylamide gel in native and denaturing conditions followed by coomassie brilliant blue R-250 staining (FIG. 4). Then, the antithrombin preparation is aliquoted and stored at −80° C. before use for functional assay. The same procedure is used to purify plasma antithrombin (used as internal reference) from human plasma.

| Molecule | elution from heparin affinity column compared with wild type antithrombin |
| --- | --- |
| B1 | higher ionic strength than wild type antithrombin |
| B2 | higher ionic strength than wild type antithrombin |
| B3 | higher ionic strength than wild type antithrombin |

system: pentasaccharide bound murine antithrombin (plasma anti-Xa activity); assay: Anti factor Xa assay in mouse plasma supplemented with Fondaparinux; type: biochemical; details: not given
Experimental: During the animal experimentation (see detailed protocol below), human mutated antithrombins compete with murine antithrombin for their binding to the pentasaccharide. Thus, preliminary in vitro assays are performed to determine the human mutated antithrombin concentration necessary to compete with the murine antithrombin present in mouse plasma supplemented with Fondaparinux.
These experiments are performed as described in section II-b, using mouse plasma instead of human plasma.

| Molecule | effect on anti-Xa activity of pentasaccharide contained in mouse plasma |
| --- | --- |
| B1 | significant decrease |
| B2 | significant decrease |
| B3 | significant decrease |
